Tested on: Aβ1-42 peptide, untreated (non-nitrated)

## recombinant insulin degrading enzyme (IDE)
  degradation of Aβ (immunoblot with 6E10 after 2 h incubation): Analysis after 2 h of incubation showed decreased degradation of Aβ with increasing concentration of Sin-1

Source: US20120192294
